# Measurements taken from publication PMC6180126, “A guanine-flipping and sequestration mechanism for G-quadruplex unwinding by RecQ helicases”.
# B1: Duplex 1/Duplex 2 (dsDNA)
# DNA 1: GCGTGGGTAATTGTGCTTCAATGGACTGAC
# DNA 2: AAGCACAATTACCCACGC
# What was measured:
# [1] = biological target: T1, CsRecQ catalytic core S245A (Cronobacter sakazakii, UniProt A7MQK9 1-521, S245A); experiment: fluorescence anisotropy; apparent Kd; 1 mM Mg2+; 20 mM Tris-HCl pH 8.0, 100 mM NaCl, 1 mM MgCl2, 1 mM 2-mercaptoethanol, 0.1 mg/mL BSA, 4% glycerol; 5 nM DNA, 30 min at room temperature, read at 25 C (G4 folded in 10 mM Tris-HCl pH 8.0, 100 mM KCl); conditions: protein: recombinant; tags: N-terminal His tag removed (thrombin); label: 3' FAM on Duplex 1; 18 bp, 3' overhang 12 nt on strand 1
# CsRecQ catalytic core = CsRecQ catalytic core (Cronobacter sakazakii, UniProt A7MQK9 1-521); experiment: as above; conditions: protein: recombinant, tags: N-terminal His tag removed (thrombin)
# [2] = biological target: EcRecQ catalytic core D312A (Escherichia coli, UniProt P15043 1-523, D312A); experiment: as above; conditions: protein: recombinant, tags: N-terminal His tag removed (thrombin)
# [3] = biological target: T2, EcRecQ catalytic core S245A (Escherichia coli, UniProt P15043 1-523, S245A); experiment: as above; conditions: protein: recombinant; tags: N-terminal His tag removed (thrombin); label: 3' FAM on Duplex 1; 18 bp, 3' overhang 12 nt on strand 1
# EcRecQ catalytic core = EcRecQ catalytic core (Escherichia coli, UniProt P15043 1-523); experiment: as above; conditions: protein: recombinant, tags: N-terminal His tag removed (thrombin)
# [4] = biological target: T1, CsRecQ catalytic core S245A; experiment: X-ray crystallography; discontinuous density in helicase/winged-helix cleft; 20 mM Tris-HCl pH 8.0, 100 mM NaCl, 1 mM MgCl2, 1 mM 2-mercaptoethanol, 0.1 mg/mL BSA, 4% glycerol; 5 nM DNA, 30 min at room temperature, read at 25 C (G4 folded in 10 mM Tris-HCl pH 8.0, 100 mM KCl); conditions: protein: recombinant; tags: N-terminal His tag removed (thrombin); antiparallel G4 with 12 nt 3' ssDNA tail; resolved (unwound) in 6CRM
# [5] = biological target: T1, CsRecQ catalytic core S245A; experiment: fluorescence anisotropy; 1 mM Mg2+; Kd not determined (anisotropy decreased with time); 20 mM Tris-HCl pH 8.0, 100 mM NaCl, 1 mM MgCl2, 1 mM 2-mercaptoethanol, 0.1 mg/mL BSA, 4% glycerol; 5 nM DNA, 30 min at room temperature, read at 25 C (G4 folded in 10 mM Tris-HCl pH 8.0, 100 mM KCl); conditions: protein: recombinant; tags: N-terminal His tag removed (thrombin); label: 3' FAM; intramolecular G4 (folded in 100 mM KCl) with 12 nt 3' ssDNA tail
# [6] = biological target: T2, EcRecQ catalytic core S245A; experiment: as above; conditions: protein: recombinant; tags: N-terminal His tag removed (thrombin); label: 3' FAM; intramolecular G4 (folded in 100 mM KCl) with 12 nt 3' ssDNA tail
# [7] = label: 3' FAM on Duplex 1, 18 bp, 3' overhang 12 nt on strand 1
# [8] = label: 3' FAM, intramolecular G4 (folded in 100 mM KCl) with 12 nt 3' ssDNA tail
binder,measurement,setting,value
B1,Kd,[1],4000 ± 1600 nM
same,Kd,CsRecQ catalytic core; [7],2900 ± 300 nM
same,Kd,[2]; [7],280 ± 20 nM
same,Kd,[3],2200 ± 200 nM
same,Kd,EcRecQ catalytic core; [7],950 ± 60 nM
TTAGGGTTAGGGTTAGGGTTAGGGTCGGTGCCTTACT (structured_DNA) [G4 DNA],binding result,[4],binds
TTAGGGTTAGGGTTAGGGTTAGGGTCGGTGCCTTACT (structured_DNA) [F-G4],Kd,CsRecQ catalytic core; [8],4700 ± 900 nM
same,Kd,[2]; [8],330 ± 40 nM
same,Kd,EcRecQ catalytic core; [8],1000 ± 100 nM
same,binding result,[5],binds
same,binding result,[6],binds
